Consider one protein from article PMC7411048, “ATP-dependent hydroxylation of an unactivated primary carbon with water” (Nature Communications, 2020).

Substrate in data set [1]: CC(C)=CCC[C@@H](C)[C@H]1CC[C@H]2[C@@H]3CCC4=CC(=O)C=C[C@]4(C)[C@H]3CC[C@]12C
Kind of data set: UPLC assay of DDO hydroxylation to 26-OH-DDO. The data set is classed as biochemical, Sterolibacterium denitrificans. The conditions noted are these: 5 mM K3[Fe(CN)6] as electron acceptor, 50 mM MOPS/KOH pH 7.0, 6% HPCD, 30 °C, anaerobic, enriched enzyme.

Substrate in data set [2]: C/C(=C\CC[C@@H](C)[C@H]1CC[C@H]2[C@@H]3CCC4=CC(=O)C=C[C@]4(C)[C@H]3CC[C@]12C)CO
Description: UPLC assay of 26-OH-DDO dehydrogenation to DDO-26-al. The data set is classed as biochemical, Sterolibacterium denitrificans. The conditions noted are these: 5 mM K3[Fe(CN)6] as electron acceptor, 50 mM MOPS/KOH pH 7.0, 6% HPCD, 30 °C, anaerobic, enriched enzyme.

B1: S26DH1 (desmost-1,4-dien-3-one (DDO) hydroxylase; DH5) (Sterolibacterium denitrificans) (protein)
chain: PLQHFKGTTASGRFDLGPRTTPKLGNWQDLYRQRWTWDKVAKGSHGWANCRSACEWDLYVKDGVVVREEQSATYEASEPGIPDFNPRGCQKGACYTEVMYGPSRTTVPLKRVGPRGSGKWEKISWEQALREIAVKTVDAAEKWGTDTIYQDLGPNFDFGASTAGRFKFQFMAGGIFADNWAEIGDLNVGASITVGAAHLGGSADEWFLSDFIVVWMMNPSVTQIPDAHFLYEARYNGTELCVIDPQYSATAIHADQWLPLESGTDAALGLAVARYLLDTGAIDLPYIREQTDLPLLARLDTGRFLRESDLKAGGDEDQLYMWHPQKNAAVPAPGCLKNTTRSLKLDFEPPIDGQWKIKLANGEEVVVVPVGAMLKEHLDPWTFEHAAQVTHLHIDQIRKFAEGWAKAERPMVLSSWGSNRYVHSDLMNRTKMLLLMLKGALGKKGAGYQATGWVDLDGFGNAMQMEKSGMTGRLAVMLNAMPPKELFNAIVDIIKKRKTENDVALEGENNYLRNKLCTSDVVEVNLKSEGYRAALSKEQEGLYPRELSDYYDEAHEKGWAPGLPRKNTPKIFFSGGSNLLRRNNLPQYLKAHIWDQMDCIVDVNPKYSYTGTQADYILPAAGWYEKTGIKYTMSYIPYLHYCDAAVPPLAESKGEWEIYWLLTREMENYAKEKNQPILDGCGRGTIDMKTIHQRYTNQGDLGQHDQDKVTEEILRSESTKGMTVEGLRQTGIAKYTATGKNVQATALNNPDWKGEGVLTTLTRFTVHKEPWPTYSGRISSFIDHPWFIEGHEQFATHKDSPKAGGDYPFIFVSCHARWSIHSTWRDTPMMLRLQRGEPLVYLNPTDAAKIGVKDFEYVEIYNNYGSIRMRLKVTAMVRPGVAYYYHAWEPHQFPNHESYKNLIPGIVQPLHYAGGYGHINHALNRFQPGSAVQDTRIGIKPWTGQATGVKPVVVTAEEAAIAERANQAI
notes: alpha-beta-gamma complex, Mo-cofactor/FeS/heme b; produced in Thauera aromatica K172 with delta-chaperone (SdhD, delta4); enriched by three columns; with Steroid C26 dehydrogenase 1 beta subunit (FeS electron transfer subunit); Steroid C26 dehydrogenase 1 gamma subunit (heme b subunit)
Regarding B1, the values for the Km in data set [1] and in data set [2] were 123 ± 25 µM and 83 ± 12 µM, respectively.

Usually Km stands for the substrate concentration at which the rate is half of its maximum.
